What was measured:
[1] = molecular target: human PAX 5 protein (human) (UniProt Q02548); assay: IHC, Reed Sternberg cells, Hodkins lymphoma 1, antibody at 3 ug/mL
[2] = molecular target: human PAX 5 protein (human) (UniProt Q02548); assay: IHC, Reed Sternberg cells, Hodkins lymphoma 4, antibody at 3 ug/mL
[3] = molecular target: human PAX 5 protein (human) (UniProt Q02548); assay: IHC, Reed Sternberg cells, Hodkins lymphoma 3, antibody at 3 ug/mL
[4] = molecular target: human PAX 5 protein (human) (UniProt Q02548); assay: IHC, Reed Sternberg cells, Hodkins lymphoma 2, antibody at 3 ug/mL

Chain of UniProt Q02548 (Q02548 whole entry): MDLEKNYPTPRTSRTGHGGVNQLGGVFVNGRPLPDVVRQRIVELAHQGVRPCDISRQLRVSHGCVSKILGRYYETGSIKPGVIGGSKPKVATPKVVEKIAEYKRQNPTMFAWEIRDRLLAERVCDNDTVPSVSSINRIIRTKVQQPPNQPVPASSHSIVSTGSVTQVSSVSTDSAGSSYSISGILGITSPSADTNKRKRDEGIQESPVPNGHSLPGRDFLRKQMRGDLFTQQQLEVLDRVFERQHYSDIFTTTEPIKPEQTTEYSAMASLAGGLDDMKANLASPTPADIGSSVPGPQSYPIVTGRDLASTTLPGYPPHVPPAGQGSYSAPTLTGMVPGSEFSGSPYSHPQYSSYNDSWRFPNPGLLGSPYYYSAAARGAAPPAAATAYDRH

| Substance | IHC staining intensity score (score on a scale of 0 to 6) [1] | IHC staining intensity score (score on a scale of 0 to 6) [2] | IHC staining intensity score (score on a scale of 0 to 6) [3] | IHC staining intensity score (score on a scale of 0 to 6) [4] |
| --- | --- | --- | --- | --- |
| monoclonal mouse B-Cell Specific Activator Protein (BSAP), clone DAK-Pax5 (antibody) | 6 | 6 | 2 | 0 |
| monoclonal mouse PAX 5, clone 24 (BD Biosciences) (antibody) | 2 | 2 | 1 | 0 |
